Measured values as given in US20220298218A1 (ANTAG THERAPEUTICS, published 2022).
Read-outs that look alike come from different tables or passages of the source. Where no end group is shown, it is not given here. The star is where a group is joined. C16 diacid = O=C(O)CCCCCCCCCCCCCCC(=O)*

Columns and labels:
human GIP receptor [1] = target: T1, human GIP receptor (human, UniProt P48546 22-466); test: cell-based or functional assay
T1 sequence (looked up): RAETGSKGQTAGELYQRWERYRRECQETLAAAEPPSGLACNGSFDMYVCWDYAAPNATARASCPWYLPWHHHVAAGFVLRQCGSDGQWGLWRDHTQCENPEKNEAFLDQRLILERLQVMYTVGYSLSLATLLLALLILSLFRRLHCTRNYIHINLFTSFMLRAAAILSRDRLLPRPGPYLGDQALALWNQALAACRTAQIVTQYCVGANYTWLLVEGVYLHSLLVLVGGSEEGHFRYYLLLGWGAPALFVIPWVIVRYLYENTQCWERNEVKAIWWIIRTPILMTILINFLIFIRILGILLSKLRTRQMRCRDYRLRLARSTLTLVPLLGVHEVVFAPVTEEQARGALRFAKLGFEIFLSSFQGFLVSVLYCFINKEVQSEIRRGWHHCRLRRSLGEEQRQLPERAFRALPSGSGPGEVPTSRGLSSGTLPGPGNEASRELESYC

human GIP receptor [2] = target: T1, human GIP receptor; test: cell-based or functional assay; remark: listed apart in the source

B1: AT447 (peptide)
peptide: EGTFISDYSIAMDKIK(C16 diacid)QQDFVNWLLAQKG-OH
modifications: N-terminus assumed
SMILES: CC[C@H](C)[C@H](NC(=O)[C@H](CO)NC(=O)[C@H](Cc1ccc(O)cc1)NC(=O)[C@H](CC(=O)O)NC(=O)[C@H](CO)NC(=O)[C@@H](NC(=O)[C@H](Cc1ccccc1)NC(=O)[C@@H](NC(=O)CNC(=O)[C@@H](N)CCC(=O)O)[C@@H](C)O)[C@@H](C)CC)C(=O)N[C@@H](C)C(=O)N[C@@H](CCSC)C(=O)N[C@@H](CC(=O)O)C(=O)N[C@@H](CCCCN)C(=O)N[C@H](C(=O)N[C@@H](CCCCNC(=O)CCCCCCCCCCCCCCC(=O)O)C(=O)N[C@@H](CCC(N)=O)C(=O)N[C@@H](CCC(N)=O)C(=O)N[C@@H](CC(=O)O)C(=O)N[C@@H](Cc1ccccc1)C(=O)N[C@H](C(=O)N[C@@H](CC(N)=O)C(=O)N[C@@H](Cc1c[nH]c2ccccc12)C(=O)N[C@@H](CC(C)C)C(=O)N[C@@H](CC(C)C)C(=O)N[C@@H](C)C(=O)N[C@@H](CCC(N)=O)C(=O)N[C@@H](CCCCN)C(=O)NCC(=O)O)C(C)C)[C@@H](C)CC
With B1 the “cAMP agonism % Emax” value (human GIP receptor [1]) was 0%, the “cAMP antagonism” value (human GIP receptor [1]) was 11.9 nM and the “cAMP antagonism % inhib” value (human GIP receptor [1]) was 93%. The “cAMP antagonism pIC50” value (human GIP receptor [1]) was 7.9, the “cAMP agonism Emax” value (human GIP receptor [2]) was 4.2 and the “cAMP antagonism” value (human GIP receptor [2]) was 9 nM. The “cAMP antagonism % inhib” value (human GIP receptor [2]) was 82% and the cAMP antagonism log (human GIP receptor [2]) was -8.1 log M.

B2: AT473 (peptide)
peptide: EGTFISDYSIAMDKIK(C16 diacid)QQDFVNWLLAQKGPS-OH
modifications: N-terminus assumed
SMILES: CC[C@H](C)[C@H](NC(=O)[C@H](CO)NC(=O)[C@H](Cc1ccc(O)cc1)NC(=O)[C@H](CC(=O)O)NC(=O)[C@H](CO)NC(=O)[C@@H](NC(=O)[C@H](Cc1ccccc1)NC(=O)[C@@H](NC(=O)CNC(=O)[C@@H](N)CCC(=O)O)[C@@H](C)O)[C@@H](C)CC)C(=O)N[C@@H](C)C(=O)N[C@@H](CCSC)C(=O)N[C@@H](CC(=O)O)C(=O)N[C@@H](CCCCN)C(=O)N[C@H](C(=O)N[C@@H](CCCCNC(=O)CCCCCCCCCCCCCCC(=O)O)C(=O)N[C@@H](CCC(N)=O)C(=O)N[C@@H](CCC(N)=O)C(=O)N[C@@H](CC(=O)O)C(=O)N[C@@H](Cc1ccccc1)C(=O)N[C@H](C(=O)N[C@@H](CC(N)=O)C(=O)N[C@@H](Cc1c[nH]c2ccccc12)C(=O)N[C@@H](CC(C)C)C(=O)N[C@@H](CC(C)C)C(=O)N[C@@H](C)C(=O)N[C@@H](CCC(N)=O)C(=O)N[C@@H](CCCCN)C(=O)NCC(=O)N1CCC[C@H]1C(=O)N[C@@H](CO)C(=O)O)C(C)C)[C@@H](C)CC
For B2, the “cAMP agonism % Emax” value (human GIP receptor [1]) was 0%, the “cAMP antagonism” value (human GIP receptor [1]) was 2.93 nM and the “cAMP antagonism % inhib” value (human GIP receptor [1]) was 88%. For the same binder, the “cAMP antagonism pIC50” value (human GIP receptor [1]) was 8.5, the “cAMP antagonism” value (human GIP receptor [2]) was 26 nM and the “cAMP antagonism % inhib” value (human GIP receptor [2]) was 100%. It also gave a cAMP antagonism log (human GIP receptor [2]) of -7.6 log M.

B3: AT448 (peptide)
peptide: EGTFISDYSIAMDKIK(C16 diacid)QQDFVNWLLAQKGK-OH
modifications: N-terminus assumed
SMILES: CC[C@H](C)[C@H](NC(=O)[C@H](CO)NC(=O)[C@H](Cc1ccc(O)cc1)NC(=O)[C@H](CC(=O)O)NC(=O)[C@H](CO)NC(=O)[C@@H](NC(=O)[C@H](Cc1ccccc1)NC(=O)[C@@H](NC(=O)CNC(=O)[C@@H](N)CCC(=O)O)[C@@H](C)O)[C@@H](C)CC)C(=O)N[C@@H](C)C(=O)N[C@@H](CCSC)C(=O)N[C@@H](CC(=O)O)C(=O)N[C@@H](CCCCN)C(=O)N[C@H](C(=O)N[C@@H](CCCCNC(=O)CCCCCCCCCCCCCCC(=O)O)C(=O)N[C@@H](CCC(N)=O)C(=O)N[C@@H](CCC(N)=O)C(=O)N[C@@H](CC(=O)O)C(=O)N[C@@H](Cc1ccccc1)C(=O)N[C@H](C(=O)N[C@@H](CC(N)=O)C(=O)N[C@@H](Cc1c[nH]c2ccccc12)C(=O)N[C@@H](CC(C)C)C(=O)N[C@@H](CC(C)C)C(=O)N[C@@H](C)C(=O)N[C@@H](CCC(N)=O)C(=O)N[C@@H](CCCCN)C(=O)NCC(=O)N[C@@H](CCCCN)C(=O)O)C(C)C)[C@@H](C)CC
In the case of B3, the “cAMP agonism % Emax” value (human GIP receptor [1]) is reported as 0%, the “cAMP antagonism” value (human GIP receptor [1]) is reported as 1.36 nM and the “cAMP antagonism % inhib” value (human GIP receptor [1]) is reported as 96%. For the same binder, the “cAMP antagonism pIC50” value (human GIP receptor [1]) was 8.9, the “cAMP agonism Emax” value (human GIP receptor [2]) was 6.2 and the “cAMP antagonism” value (human GIP receptor [2]) was 6 nM. The “cAMP antagonism % inhib” value (human GIP receptor [2]) was 77% and the cAMP antagonism log (human GIP receptor [2]) was -8.2 log M.

B4: AT360 (peptide)
peptide: EGTFISDYSIAMDKIK(C16 diacid)QQDFVNWLLAQKGKK-OH
modifications: N-terminus assumed
SMILES: CC[C@H](C)[C@H](NC(=O)[C@H](CO)NC(=O)[C@H](Cc1ccc(O)cc1)NC(=O)[C@H](CC(=O)O)NC(=O)[C@H](CO)NC(=O)[C@@H](NC(=O)[C@H](Cc1ccccc1)NC(=O)[C@@H](NC(=O)CNC(=O)[C@@H](N)CCC(=O)O)[C@@H](C)O)[C@@H](C)CC)C(=O)N[C@@H](C)C(=O)N[C@@H](CCSC)C(=O)N[C@@H](CC(=O)O)C(=O)N[C@@H](CCCCN)C(=O)N[C@H](C(=O)N[C@@H](CCCCNC(=O)CCCCCCCCCCCCCCC(=O)O)C(=O)N[C@@H](CCC(N)=O)C(=O)N[C@@H](CCC(N)=O)C(=O)N[C@@H](CC(=O)O)C(=O)N[C@@H](Cc1ccccc1)C(=O)N[C@H](C(=O)N[C@@H](CC(N)=O)C(=O)N[C@@H](Cc1c[nH]c2ccccc12)C(=O)N[C@@H](CC(C)C)C(=O)N[C@@H](CC(C)C)C(=O)N[C@@H](C)C(=O)N[C@@H](CCC(N)=O)C(=O)N[C@@H](CCCCN)C(=O)NCC(=O)N[C@@H](CCCCN)C(=O)N[C@@H](CCCCN)C(=O)O)C(C)C)[C@@H](C)CC
With B4 the “cAMP agonism % Emax” value (human GIP receptor [1]) was 0%, the “cAMP antagonism” value (human GIP receptor [1]) was 12.6 nM and the “cAMP antagonism % inhib” value (human GIP receptor [1]) was 96%. For the same binder, the “cAMP antagonism pIC50” value (human GIP receptor [1]) was 7.9, the “cAMP agonism Emax” value (human GIP receptor [2]) was 20 and the “cAMP antagonism” value (human GIP receptor [2]) was 86 nM. For the same binder, the “cAMP antagonism % inhib” value (human GIP receptor [2]) was 85% and the cAMP antagonism log (human GIP receptor [2]) was -7.1 log M.

B5: AT474 (peptide)
peptide: EGTFISDYSIAMDKIK(C16 diacid)QQDFVNWLLAQKGP-OH
modifications: N-terminus assumed
SMILES: CC[C@H](C)[C@H](NC(=O)[C@H](CO)NC(=O)[C@H](Cc1ccc(O)cc1)NC(=O)[C@H](CC(=O)O)NC(=O)[C@H](CO)NC(=O)[C@@H](NC(=O)[C@H](Cc1ccccc1)NC(=O)[C@@H](NC(=O)CNC(=O)[C@@H](N)CCC(=O)O)[C@@H](C)O)[C@@H](C)CC)C(=O)N[C@@H](C)C(=O)N[C@@H](CCSC)C(=O)N[C@@H](CC(=O)O)C(=O)N[C@@H](CCCCN)C(=O)N[C@H](C(=O)N[C@@H](CCCCNC(=O)CCCCCCCCCCCCCCC(=O)O)C(=O)N[C@@H](CCC(N)=O)C(=O)N[C@@H](CCC(N)=O)C(=O)N[C@@H](CC(=O)O)C(=O)N[C@@H](Cc1ccccc1)C(=O)N[C@H](C(=O)N[C@@H](CC(N)=O)C(=O)N[C@@H](Cc1c[nH]c2ccccc12)C(=O)N[C@@H](CC(C)C)C(=O)N[C@@H](CC(C)C)C(=O)N[C@@H](C)C(=O)N[C@@H](CCC(N)=O)C(=O)N[C@@H](CCCCN)C(=O)NCC(=O)N1CCC[C@H]1C(=O)O)C(C)C)[C@@H](C)CC
In the case of B5, the “cAMP agonism % Emax” value (human GIP receptor [1]) is reported as 0%, the “cAMP antagonism” value (human GIP receptor [1]) is reported as 13.6 nM and the “cAMP antagonism % inhib” value (human GIP receptor [1]) is reported as 86%. For the same binder, the “cAMP antagonism pIC50” value (human GIP receptor [1]) was 7.9, the “cAMP agonism Emax” value (human GIP receptor [2]) was 5.9 and the “cAMP antagonism” value (human GIP receptor [2]) was 4 nM. For the same binder, the “cAMP antagonism % inhib” value (human GIP receptor [2]) was 100% and the cAMP antagonism log (human GIP receptor [2]) was -8.4 log M.
